1 protein from PMC4496674, “Tackling Critical Catalytic Residues in Helicobacter pylori L-Asparaginase” (Biomolecules, 2015) can be followed below.

Substrate in data set [1]: NC(=O)CC[C@H](N)C(=O)O
Description: purified protein. To be noted: 50 mM HEPES pH 7.5, 37 °C, sigmoidal, cooperative.

Substrate in data set [2]: NC(=O)C[C@H](N)C(=O)O
In words: purified protein. To be noted: 50 mM HEPES pH 7.5, 37 °C, hyperbolic.

B1: HpASNase (Helicobacter pylori 26695) (protein)
chain: MAQNLPTIALLATGGTIAGSGASASLGSYKSGELGIKELLKAIPSLNRLARIQGEQISNIGSQDMNEEVWFKLAKRAQELLDDSRIQGVVITHGTDTLEESAYFLNLVLRSTKPVVLVGAMRNAASLSADGALNLYNAVSVALNEKSANKGVLVVMDDNIFSAREVIKTHTTHTSTFKALNSGAIGSVYYGKTRYYMQPLRKHTTESEFSLSQLKTPLPKVDIIYTHAGMTPDLFQASLNSHAKGVVIAGVGNGNVSAGFLKAMQEASQMGVVIVRSSRVNSGEITSGEIDDKAFITSDNLNPQKARVLLQLALTKTNNKEKIQEMFEEY
B1: in “purified protein [1]”, the K0.5 is 46.4 ± 4.02 mM; the catalytic constant (kcat) (commonly the number of substrate molecules converted per active site and unit of time at saturation) came out at 22.1 ± 1.39 s⁻¹; the kcat/Km (usually the turnover number divided by the Michaelis constant) came to 470 ± 100 M⁻¹ s⁻¹. Besides, in the data set “purified protein [2]”, the K0.5 is on record as 0.29 ± 0.03 mM, the turnover number (kcat) amounted to 19.3 ± 0.56 s⁻¹ and the catalytic efficiency (kcat/Km) turned out to be 66400 M⁻¹ s⁻¹.
